{"source": "patent US20220305006A1", "about": "(University of California, published 2022)", "assay_in_all_cases": "cell-based or functional assay", "key": {"[1]": {"biological_target": "Recombinant Human Cathepsin D (human, UniProt P07339 65-412)", "sequence (P07339 65-412)": "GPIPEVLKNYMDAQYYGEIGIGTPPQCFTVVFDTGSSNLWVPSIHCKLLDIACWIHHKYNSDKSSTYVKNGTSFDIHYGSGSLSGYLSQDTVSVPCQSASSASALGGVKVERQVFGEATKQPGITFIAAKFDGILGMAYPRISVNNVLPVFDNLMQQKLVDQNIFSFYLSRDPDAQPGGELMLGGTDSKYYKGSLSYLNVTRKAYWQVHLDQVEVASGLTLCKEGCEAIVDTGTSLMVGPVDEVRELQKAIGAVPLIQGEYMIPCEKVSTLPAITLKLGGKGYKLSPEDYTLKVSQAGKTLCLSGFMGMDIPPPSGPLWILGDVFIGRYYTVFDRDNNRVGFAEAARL"}, "[2]": {"biological_target": "BACE in CHO-7W cells (Chinese hamster ovary cells stably transfected with wildtype human APP)"}, "[3]": {"biological_target": "BACE1 expressed from a transfected plasmid in 293T cells (NRG1 and PSGL1 assays)"}}}
{"binder": "Ac-ALYPYFLPISAK-NH2", "note": "[Peptide 65007]", "values": [{"measurement": "Cat D activity (fluorogenic substrate), IC50", "setting": "[1]", "result": "> 5", "unit": "µM"}, {"measurement": "decrease of BACE cleavage product sAPPβ from CHO-7W cells, EC50", "setting": "[2]", "result": "~10", "unit": "µM"}, {"measurement": "NRG1 cleavage by BACE in co-transfected 293T cells (secreted alkaline phosphatase), EC50", "setting": "[3]", "result": "> 10", "unit": "µM"}, {"measurement": "PSGL1 cleavage by BACE in co-transfected 293T cells (secreted alkaline phosphatase), EC50", "setting": "[3]", "result": "> 10", "unit": "µM"}]}
